Laboratory results taken from patent publication US20140030725.

Biological target: MMP-2 sensor (1A5 variant backbone with the human MMP-2 recognition site PLGMWSR, N-terminal GST tag with TEV site, C-terminal 5xHQ tag)

B1: Activated MMP-2 (Anaspec) (protein)
chain: YNFFPRKPKWDKNQITYRIIGYTPDLDPETVDDAFARAFQVWSDVTPLRFSRIHDGEADIMINFGRWEHGDGYPFDGKDGLLAHAFAPGTGVGGDSHFDDDELWTLGEGQVVRVKYGNADGEYCKFPFLFNGKEYNSCTDTGRSDGFLWCSTTYNFEKDGKYGFCPHEALFTMGGNAEGQPCKFPFRFQGTSYDSCTTEGRTDGYRWCGTTEDYDRDKKYGFCPETAMSTVGGNSEGAPCVFPFTFLGNKYESCTSAGRSDGKMWCATTANYDDDRKWGFCPDQGYSLFLVAAHEFGHAMGLEHSQDPGALMAPIYTYTKNFRLSQDDIKGIQELYGASPDIDLGTGPTPTLGPVTPEICKQDIVFDGIAQIRGEIFFFKDRFIWRTVTPRDKPMGPLLVATFWPELPEKIDAVYEAPQEEKAVFFAGNEYWIYSASTLERGYPKPLTSLGLPPDVQRVDAAFNWSKNKKTYIFAGDKFWRYNEVKKKMDPGFPKLIADAWNAIPDNLDAVVDLQGGGHSYFFKGAYYLKLENQSLKSVKFGSIKSDWLGC
In the case of B1, the “luminescence, fold increase over control (background from MMP-2 sensor); least amount of MMP-2 detected” value is reported as “can be used to detect as little as 0.75 ng protein”.
